Data set [1] relates to FLAG-epitope tagged NPRA stably over-expressed in HEK293 cells (HEK-NPRA cells).
Data set [2] has as its system 5'-FLAG epitope-tagged sNRF^(806-900).
Data set [3] concerns full-length NPRA (SEQ ID NO: 2).
Chain of full-length NPRA (SEQ ID NO: 2) (chain, as listed by the source): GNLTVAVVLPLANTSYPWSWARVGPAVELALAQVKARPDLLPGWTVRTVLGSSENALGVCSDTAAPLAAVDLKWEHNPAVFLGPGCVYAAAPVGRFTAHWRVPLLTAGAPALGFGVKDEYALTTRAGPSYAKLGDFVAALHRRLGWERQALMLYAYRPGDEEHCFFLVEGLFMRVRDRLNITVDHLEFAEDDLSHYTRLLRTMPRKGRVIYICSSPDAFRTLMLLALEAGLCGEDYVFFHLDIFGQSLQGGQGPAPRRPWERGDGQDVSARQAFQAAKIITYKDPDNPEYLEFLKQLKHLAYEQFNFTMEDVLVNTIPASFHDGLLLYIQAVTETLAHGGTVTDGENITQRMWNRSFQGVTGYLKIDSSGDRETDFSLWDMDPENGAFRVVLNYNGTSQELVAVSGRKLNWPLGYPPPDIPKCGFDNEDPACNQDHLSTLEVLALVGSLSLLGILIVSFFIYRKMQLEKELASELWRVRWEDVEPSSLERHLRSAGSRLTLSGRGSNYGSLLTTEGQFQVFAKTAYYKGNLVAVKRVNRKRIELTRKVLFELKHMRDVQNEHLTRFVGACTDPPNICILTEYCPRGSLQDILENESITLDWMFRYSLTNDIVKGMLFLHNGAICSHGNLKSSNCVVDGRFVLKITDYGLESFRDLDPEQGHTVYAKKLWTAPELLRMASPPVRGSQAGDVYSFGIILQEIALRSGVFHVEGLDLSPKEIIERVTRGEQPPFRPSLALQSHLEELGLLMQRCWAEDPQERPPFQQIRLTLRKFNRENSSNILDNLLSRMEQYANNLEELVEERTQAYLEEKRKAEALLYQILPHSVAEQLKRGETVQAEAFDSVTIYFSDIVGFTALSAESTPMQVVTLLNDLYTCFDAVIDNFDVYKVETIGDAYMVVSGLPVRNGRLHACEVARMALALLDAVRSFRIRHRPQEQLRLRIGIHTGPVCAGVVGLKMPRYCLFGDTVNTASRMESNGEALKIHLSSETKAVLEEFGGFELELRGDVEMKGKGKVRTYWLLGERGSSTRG

Chain of 5'-FLAG epitope-tagged sNRF^(806-900) (chain, as listed by the source): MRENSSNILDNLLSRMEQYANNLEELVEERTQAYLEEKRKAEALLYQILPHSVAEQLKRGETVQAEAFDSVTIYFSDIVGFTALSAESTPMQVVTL

On to “cGMP-dependent protein kinase I (PKG) in HEK-NPRA cells”, for which the “ANP-induced phosphorylation of a 137-kD protein ([35S]ATPγS, autoradiography)” value in data set [1] is given as “Robust phosphorylation of a 137-kD protein occurred in the NPRA-expressing cells, but not in control cells”.

With “cGMP-dependent protein kinase I (PKG), endogenous in neonatal rat cardiac fibroblasts”, in data set [2], the “ANP-induced NPRA phosphorylation in cardiac fibroblasts ([35S]ATPγS incorporation)” value is “both KT5823 or expressed sNRF^(806-900) protein reduced ANP-induced NPRA phosphorylation to control levels”.

As for recombinant PKG, in data set [3], the “phosphorylation ([35S]ATPγS incorporation, autoradiography of Cos7 membrane lysates)” value was “SDS page gels demonstrated a phosphorylated 137 kD protein that corresponded to full-length NPRA”.

(Values after patent publication US20090312247.)
